Consider one substance from article PMC4863622.

This test addresses human Toll-like receptor 5, V5-tagged (hTLR5-V5) (human) (UniProt O60602).
UniProt O60602, sequence (O60602 21-858): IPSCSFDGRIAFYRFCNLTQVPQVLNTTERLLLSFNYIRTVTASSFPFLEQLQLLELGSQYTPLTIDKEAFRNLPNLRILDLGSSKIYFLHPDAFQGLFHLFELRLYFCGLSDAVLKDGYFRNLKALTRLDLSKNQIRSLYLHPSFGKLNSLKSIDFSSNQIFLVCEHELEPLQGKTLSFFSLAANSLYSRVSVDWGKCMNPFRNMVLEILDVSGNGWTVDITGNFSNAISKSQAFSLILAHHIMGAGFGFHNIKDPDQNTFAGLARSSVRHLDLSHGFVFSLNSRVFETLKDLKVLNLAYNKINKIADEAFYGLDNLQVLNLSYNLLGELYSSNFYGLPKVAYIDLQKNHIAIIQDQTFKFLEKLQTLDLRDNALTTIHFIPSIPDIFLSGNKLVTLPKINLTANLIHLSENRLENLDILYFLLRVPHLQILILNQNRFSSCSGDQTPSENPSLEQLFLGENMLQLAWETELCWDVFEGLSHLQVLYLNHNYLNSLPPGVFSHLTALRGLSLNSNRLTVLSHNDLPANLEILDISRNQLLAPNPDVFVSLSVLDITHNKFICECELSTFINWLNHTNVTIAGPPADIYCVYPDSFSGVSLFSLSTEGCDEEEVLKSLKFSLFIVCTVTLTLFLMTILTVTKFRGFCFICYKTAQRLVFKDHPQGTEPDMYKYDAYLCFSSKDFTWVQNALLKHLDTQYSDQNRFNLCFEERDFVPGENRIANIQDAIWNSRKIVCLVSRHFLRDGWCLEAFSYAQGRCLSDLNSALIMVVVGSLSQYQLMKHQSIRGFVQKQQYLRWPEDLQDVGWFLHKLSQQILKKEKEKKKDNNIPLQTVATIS

Substance “Campylobacter jejuni FlaC, recombinant 6×His-FlaC–6×His (from UniProt P96747 1-249) (natural protein)” gave an IL-10 mRNA (quantitative RT-PCR) in hTLR5-transfected HEK293 cells, against the hTLR5 control (data not shown) of 6 fold.
